# Measurements taken from patent US20160279215A1, “NOVEL PEPTIDES AND COMBINATION OF PEPTIDES FOR USE IN IMMUNOTHERAPY AGAINST VARIOUS TUMORS” (immatics biotechnologies GmbH, priority 2015, published 2016).
# Target: T1, HLA-A*02:01 (human)
# T1 construct: MHC monomers captured on streptavidin plates; the UV-sensitive peptide is cleaved and exchanged with the test peptide; also called peptide-receptive MHC molecules; MHC class I
# Assay: UV ligand-exchange ELISA (anti-b2m); +++ = exchange yield >=50
# Details: not given
# Source text: Candidate peptides for T cell based therapies according to the present invention were further tested for their MHC binding capacity (affinity). The individual peptide-MHC complexes were produced by UV-ligand exchange, where a UV-sensitive peptide is cleaved upon UV-irradiation, and exchanged with the peptide of interest as analyzed. Only peptide candidates that can effectively bind and stabilize the peptide-receptive MHC molecules prevent dissociation of the MHC complexes. To determine the yield of the exchange reaction, an ELISA was performed based on the detection of the light chain (β2m) of stabilized MHC complexes. The assay was performed as generally described in Rodenko et al. (Rodenko et al., 2006).
# 96 well MAXISorp plates (NUNC) were coated over night with 2 ug/ml streptavidin in PBS at room temperature, washed 4× and blocked for 1 h at 37° C. in 2% BSA containing blocking buffer. Refolded HLA-A*02:01/MLA-001 monomers served as standards, covering the range of 15-500 ng/ml. Peptide-MHC monomers of the UV-exchange reaction were diluted 100 fold in blocking buffer. Samples were incubated for 1 h at 37° C., washed four times, incubated with 2 ug/ml HRP conjugated anti-β2m for 1 h at 37° C., washed again and detected with TMB solution that is stopped with […]. Absorption was measured at 450 nm. Candidate peptides that show a high exchange yield (preferably higher than 50%, most preferred higher than 75%) are generally preferred for a generation and production of antibodies or fragments thereof, and/or T cell receptors or fragments thereof, as they show sufficient avidity to the MHC molecules and prevent dissociation of the MHC complexes.
row,peptide exchange yield,Molecule
1,50 to 75%,RLHDENILL
2,50 to 75%,RLLDPKTIFL
3,50 to 75%,ALLNNVIEV
4,50 to 75%,ILAQDVAQL
5,50 to 75%,AALEVLAEV
6,50 to 75%,QLREAFEQL
7,50 to 75%,AQLEGKLVSI
8,50 to 75%,FLDSQITTV
9,50 to 75%,SLYPHFTLL
10,50 to 75%,IILENIQSL
11,50 to 75%,QLYGSAITL
12,50 to 75%,LLWDAPAKC
13,50 to 75%,SIIDTELKV
14,50 to 75%,YTFSGDVQL (also called MMP1-003)

# Target: T2, HLA-A*02:01 (Homo sapiens, UniProt P04439, D140Y/D185E/D98H/E176V/E277Q/G131W/G231S/I119V/I121R/I166T/I218V/L300P/L318F/N151K/N90K/P208A/P217A/Q86G/Q94H/R138H/R169H/T345S)
# T2 construct: made in house
# Assay: MHC binding assay: UV-ligand exchange with β2m ELISA (peptide exchange yield)
# Details: binding to HLA-A*02:01 evaluated by peptide exchange yield (UV-ligand exchange, β2m ELISA)
# Procedure, shortened: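 Exchange yield is an ELISA read-out: complexes diluted 100-fold, captured on streptavidin plates, detected with HRP anti-β2m and TMB at 450 nm. Standard curve from refolded HLA-A*02:01/MLA-001 (15-500 ng/ml); complexes made by UV-triggered displacement of a photolabile ligand by test peptide.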
row,Molecule,Peptide exchange
1,215 (QIADIVTSV; listed as Homo sapiens) [compound 215],++ (≧20% = ++)
2,216 (ALSTVTPRI; listed as Homo sapiens) [compound 216],++ (≧20% = ++)
3,217 (LLWPSSVPA; listed as Homo sapiens) [compound 217],+++ (≧50 = +++)
4,218 (SLTGANITV; listed as Homo sapiens) [compound 218],+++ (≧50 = +++)
5,219 (GVVPTIQKV; listed as Homo sapiens) [compound 219],++ (≧20% = ++)
6,220 (ALSELERVL; listed as Homo sapiens) [compound 220],+++ (≧50 = +++)
7,221 (IMLNSVEEI; listed as Homo sapiens) [compound 221],++ (≧20% = ++)
8,222 (LLTGVFAQL; listed as Homo sapiens) [compound 222],++ (≧20% = ++)
9,223 (ALHPVQFYL; listed as Homo sapiens) [compound 223],+++ (≧50 = +++)
10,224 (LLFDWSGTGRADA; listed as Homo sapiens) [compound 224],+++ (≧50 = +++)
11,225 (FLPQPVPLSV; listed as Homo sapiens) [compound 225],+++ (≧50 = +++)
12,226 (SLAGNLQEL; listed as Homo sapiens) [compound 226],+++ (≧50 = +++)
13,227 (SEMEELPSV; listed as Homo sapiens) [compound 227],+ (≧10% = +)
14,228 (SLLELDGINLRL; listed as Homo sapiens) [compound 228],+++ (≧50 = +++)
15,229 (YLYELEHAL; listed as Homo sapiens) [compound 229],++ (≧20% = ++)
16,230 (KLLNMIFSI; listed as Homo sapiens) [compound 230],+++ (≧50 = +++)
17,231 (LLDDIFIRL; listed as Homo sapiens) [compound 231],+++ (≧50 = +++)
18,235 (SLLNQPKAV; listed as Homo sapiens) [compound 235],++ (≧20% = ++)
19,237 (ALLEQTGDMSL; listed as Homo sapiens) [compound 237],+++ (≧50 = +++)
20,238 (HLQEKLQSL; listed as Homo sapiens) [compound 238],++ (≧20% = ++)
21,239 (VIIKGLEEITV; listed as Homo sapiens) [compound 239],+++ (≧50 = +++)
22,241 (KQFEGTVEI; listed as Homo sapiens) [compound 241],+++ (≧50 = +++)
23,243 (GLAEFQENV; listed as Homo sapiens) [compound 243],++ (≧20% = ++)
24,244 (NVAEIVIHI; listed as Homo sapiens) [compound 244],+++ (≧50 = +++)
25,245 (ALLEEEEGV; listed as Homo sapiens) [compound 245],++ (≧20% = ++)
26,247 (NLLIDDKGTIKL; listed as Homo sapiens) [compound 247],++ (≧20% = ++)
27,249 (YLYQILQGI; listed as Homo sapiens) [compound 249],+++ (≧50 = +++)
28,250 (LMQDSRLYL; listed as Homo sapiens) [compound 250],+++ (≧50 = +++)
29,252 (SLMEKNQSL; listed as Homo sapiens) [compound 252],++ (≧20% = ++)

# Now from value to molecule:
row,Peptide exchange,Molecule
1,+++ (≧50 = +++),256 (FLNDIFERI; listed as Homo sapiens) [compound 256]
2,++ (≧20% = ++),258 (QLVQRVASV; listed as Homo sapiens) [compound 258]
3,+ (≧10% = +),259 (GPGIFPPPPPQP; listed as Homo sapiens) [compound 259]
4,+++ (≧50 = +++),262 (LLLEAVWHL; listed as Homo sapiens) [compound 262]
5,+++ (≧50 = +++),265 (FLLDKPQDLSI; listed as Homo sapiens) [compound 265]
6,++ (≧20% = ++),266 (FLLDKPQDL; listed as Homo sapiens) [compound 266]
7,++ (≧20% = ++),268 (SLDKDIVAL; listed as Homo sapiens) [compound 268]
8,++++ (≧75% = ++++),269 (GLLDCPIFL; listed as Homo sapiens) [compound 269]
9,+++ (≧50 = +++),270 (TLLTFFHEL; listed as Homo sapiens) [compound 270]
10,+++ (≧50 = +++),271 (VLIEYNFSI; listed as Homo sapiens) [compound 271]
11,++ (≧20% = ++),272 (FVMEGEPPKL; listed as Homo sapiens) [compound 272]
12,++ (≧20% = ++),273 (SLNKQIETV; listed as Homo sapiens) [compound 273]
13,+++ (≧50 = +++),274 (TLYNPERTITV; listed as Homo sapiens) [compound 274]
14,+++ (≧50 = +++),276 (RMPTVLQCV; listed as Homo sapiens) [compound 276]
15,+++ (≧50 = +++),277 (KLQEELNKV; listed as Homo sapiens) [compound 277]
16,+++ (≧50 = +++),278 (VLEDKVLSV; listed as Homo sapiens) [compound 278]
17,++ (≧20% = ++),279 (VLMDEGAVLTL; listed as Homo sapiens) [compound 279]
18,+++ (≧50 = +++),280 (HLWGHALFL; listed as Homo sapiens) [compound 280]
19,++ (≧20% = ++),281 (LLLESDPKVYSL; listed as Homo sapiens) [compound 281]
20,++ (≧20% = ++),282 (SLYALHVKA; listed as Homo sapiens) [compound 282]
21,+++ (≧50 = +++),283 (ALSELLQQV; listed as Homo sapiens) [compound 283]
22,++ (≧20% = ++),284 (KLMDPGSLPPL; listed as Homo sapiens) [compound 284]
23,+++ (≧50 = +++),285 (MLLDTVQKV; listed as Homo sapiens) [compound 285]
24,+++ (≧50 = +++),286 (FLTEMVHFI; listed as Homo sapiens) [compound 286]
